Laboratory results as given in PMC10847504.

Target: CNOT1 of the CCR4-NOT complex, endogenous
Assay: GFP-trap pull-down, Western blot quantification
Settings: lentivirally transduced neurons, read off a plot
[1] = NMDA 3 min, 10 min incubation after NMDA washout, parent: est. 1.4
[2] = vehicle (no NMDA) 3 min, 10 min incubation after washout, parent: est. 0.94

ratio to parent [1] | ratio to parent [2] | Substance
0.81 | 0.75 | GFP-Ago2(WT) (from UniProt Q9UKV8) S387A
1.3 | 1.3 | GFP-Ago2(WT) (from UniProt Q9UKV8) S387D
